Reference: the DeepSol protein solubility set

test: soluble on expression in E. coli; label from the status in PepcDB or PDB records

Row | Sequence | soluble on expression in E. coli
1 | MSLGGTMVFRPVDVPGGAVFADQKITLGGGSPDRAFIENAHPDYLSGSFAEKNAWRYYIAKYELTAAQYAAIAGPCPDASKMDLWLPKVGITPGEATVAAESYSAWLFANARKSLPGDGKAPGFVRLPTEAEWEYAARGGAKVGPSDFDARHPPMDGPESGAIWYDGPESADKELQLVGLLAANPLGLHDMLGNAAELVQDLFRLNRVGRPHGRAGAFVKRGGDYRTPLAEIHSGLRQEFDLFDAKGLRREATTGTRFVLAAAALPSRDRLEALRQGWTALTEQSHSPLAEQQSDPRAELKTLSEFTSQLDFPEKAEVKRRLLNLAGVIDANIASRNEERDRAAREMLRVAVFAAGQLPTALDNAERCGKLMALNAAQYKERCDRVQADSKFDSQYYLDHVTRMLAEFPVPILEGQLGTLGSDLHAQGMLDAEGRVDHVFSDLKTLQAKGATAHKGILGGWKGREGHHHHHH | not soluble
2 | MTEASIKLGTTSDKLEYEVIDKGSNGFLGIGSRDAVIKVKKAEASVEDEIREFLDSVFKAMKLEVTIDIKVDEDNRNVDVELNGPEMGVLIGKRGQTLDSLQYLTNLAINKQSENYYRVKIDTEDYRKRRRETLENLAKNISFKVKRTKRPVSLEPMNPFERRVIHSALQNDRFVETHSEGDEPYRHVVVTLKK | not soluble
3 | GPGSMADYLREKVLESLGISFRETQNCRRWITEVTNMIWEAQPAELRTALCWTTPLGLVVRQPYKVRKEITLFTPHGCSRIPGDAFSAASRKQLTAIAPNLIHSLDATHLAMTAIEMQNLGLSMMAVHDSYWTYACDLPVLSKVLRQQFVTLYSKYDPLWELKEQWEEAYFMDLRRHGTLLPDPPKRGDLDLSVVLDSPYFFS | not soluble
4 | MGSSHHHHHHSSGLVPRGSHMEGRLLLLETPGNTRMSLAYDEAIYRSFQYGDKPILRFYRHDRSVIIGYFQVAEEEVDLDYMKKNGIMLARRYTGGGAVYHDLGDLNFSVVRSSDDMDITSMFRTMNEAVVNSLRILGLDARPGELNDVSIPVNKKTDIMAGEKKIMGAAGAMRKGAKLWHAAMLVHTDLDMLSAVLKVPDEKFRDKIAKSTRERVANVTDFVDVSIDEVRNALIRGFSETLHIDFREDTITEKEESLARELFDKKYSTEEWNMGLLRKEVV | soluble
5 | MVRVVIESELVRTEKELPNSLKLRQFKDRLYHVTGVEPEDMEIVVKRQYDNKEIYSTKKGGAYSNEDEDANFLKGEEELIVVVTDSNAQSISNQLATQAEGIPSMEVISEEDYLRRDQSVLRWKMAHGYGRFNAAQQSQRAALAKQDEAYAREQLTAAIGRHCRVTVDGSAPREAILRYVGPLPLDVMGTWCGVEFPEAAGKNDGRINGVTLFGPVAPGHGSFVRPRAVEILSKDEESAEVEDVHDDVESDDEI | soluble
6 | MKRAVVVFSGGQDSTTCLVQALQQYDEVHCVTFDYGQRHRAEIDVARELALKLGARAHKVLDVTLLNELAVSSLTRDSIPVPDYEPEADGIPNTFVPGRNILFLTLAAIYAYQVKAEAVITGVCETDFSGYPDCRDEFVKALNHAVSLGMAKDIRFETPLMWIDKAETWALADYYGKLDLVRNETLTCYNGIKGDGCGHCAACNLRANGLNHYLADKPTVMAAMKQKTGLR | not soluble
7 | SNAMILIDGKSLSKDLKERLATQVQEYKHHTAITPKLVAIIVGNDPASKTYVASKEKACAQVGIDSQVITLPEHTTESELLELIDQLNNDSSVHAILVQLPLPAHINKNNVIYSIKPEKDVDGFHPTNVGRLQLRDKKCLESCTPKGIMTMLREYGIKTEGAYAVVVGASNVVGKPVSQLLLNAKATVTTCHRFTTDLKSHTTKADILIVAVGKPNFITADMVKEGAVVIDVGINHVDGKIVGDVDFAAVKDKVAAITPVPGGVGPMTITELLYNTFQCAQELNR | soluble
8 | MAGDPMYHSRPIFNIIDSSNIQDRRELKLVLRHTEIAYRSFAQEDLIPAQRSWMNSIINTDVPIDPAIDEVVKRFCEVACLPGPAGIPLNIILNDSLTYVYCSFQAMRKYAHKRFYDGVSDEGVVISTVPPYAEGITKETMRSWHNNVCQNTSNETHDLDAYIAFLPTSLQNPSFSHMKIGCDSFLAPSRVDPFCVEIIAVGKALFHDNGLKKNPRCGGQWLPPSCLEHHHHHH | not soluble
